Data as given in US20170313776A1 (SORRENTO THERAPEUTICS, published 2017).

What was measured:
[1] = target: T1, recombinant human PD-1 protein (human, UniProt Q15116 25-167, limits assumed); assay: ELISA on recombinant human PD-1
T1 construct: also called monomeric recombinant human PD-1

[2] = target: T2, PD-L1 expressed on CHO-PD-L1 cells (UniProt Q9NZQ7 19-290, limits assumed); assay: flow cytometry on CHO-PD-L1 cells
T2 construct: whole, on cells
Description: (§1) This example illustrates in vitro data for cellular binding EC50 measurements and cell binding specificity. […] The experimental procedure was as follows: CHO-PD-1 cells and CHO-PD-L1 cells were obtained by stably transfecting CHO-K1 cells with PD-1 cDNA ORF clone (Origene RG210364) and PD-L1 cDNA ORF clone (Origene RG213071) respectively. After 2 weeks of Neomycin selection, clones were isolated by Fluorescence-activated cell sorting (FACS) and further expanded. […] For cell binding assays, 50,000 CHO-PD-1 cells, CHO-PD-L1 cells, and ES-2 cells were aliquoted into the wells of a 96-well, v-bottom plate in 100 μl FACS Buffer (PBS+2% FBS). A twelve point, 3× dilution curve of each anti-PD-1 antibody was made in FACS Buffer starting at 50 μg/ml (3.33×10⁻⁷M). Cells were spun down, washed twice with FACS Buffer, and then resuspended in 25 μl of antibody solution in triplicate. After 0.5 hr incubation, cells were washed 1× with FACS Buffer and resuspended in 50 μl PE-conjugated, goat anti-human IgG (γ-chain specific) secondary antibody (Southern Biotech Cat #2040-09). Cells were further incubated for 0.5 hr and then washed 1× with FACS Buffer. Cells were resuspended in 25 μl FACS Buffer and the median fluorescence intensity in the FL2-H channel was determined using the Intellicyt HTFC flow cytometer. Data was analyzed and plotted in Graph Pad Prism using non-linear regression fit.
(§2) Data points on the graph are shown as the median fluorescence intensity (MFI) of positively labeled cells depending on the antibody concentration +/− Std Error.

[3] = target: T3, recombinant cynomolgus PD-1 (cynomolgus); assay: ELISA on recombinant cynomolgus PD-1
T3 construct: also called cyno PD-1

[4] = target: T4, human PD-1 expressed on cells (human, UniProt Q15116 25-288); assay: flow cytometry on CHO-PD-1 cells
T4 construct: whole, on cells; One entry for cell-surface PD-1; also called CHO-PD-1 cells; Jurkat PD-1 cells
T4 sequence (Q15116 25-288): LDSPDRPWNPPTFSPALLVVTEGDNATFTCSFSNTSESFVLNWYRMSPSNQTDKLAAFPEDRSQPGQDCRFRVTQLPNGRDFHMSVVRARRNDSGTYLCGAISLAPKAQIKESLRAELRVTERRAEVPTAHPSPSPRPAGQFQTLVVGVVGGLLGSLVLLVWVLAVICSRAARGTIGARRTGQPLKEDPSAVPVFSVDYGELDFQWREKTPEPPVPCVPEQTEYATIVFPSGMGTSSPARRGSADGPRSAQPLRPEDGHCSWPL
Description: as §1, §2

[5] = target: T4, human PD-1 expressed on cells; assay: flow cytometry on Jurkat T cells stably expressing human PD-1
Description: Primary antibody binding to Jurkat PD-1 cells was detected by flow cytometry using either anti-heavy chain or light chain antibodies directly conjugated to fluorochromes (identical binding curves were obtained using either detection reagent).

[6] = target: T5, recombinant human PD1 (His-tagged) protein (human, UniProt Q15116 25-167, limits assumed); assay: SPR, antibody captured on anti-human Fc, PD1/His as analyte, 1:1 Langmuir fit
T5 construct: not shown: His tag
T5 sequence (Q15116 25-167 limits assumed): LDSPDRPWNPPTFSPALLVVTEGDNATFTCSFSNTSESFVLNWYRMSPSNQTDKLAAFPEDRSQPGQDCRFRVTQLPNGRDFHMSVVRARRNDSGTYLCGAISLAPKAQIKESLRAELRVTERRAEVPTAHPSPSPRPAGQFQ
Procedure: Anti-human Fc antibody was immobilized on CMS sensor chip with approximately 1000 RU. Antibodies (about 10 μg/ml) were captured for 60 s at a flow rate 10 μl/min.PD1/His was serially diluted in running buffer (HBS-EP). All measurements were conducted with a flow rate of 30 μL/min. Surfaces were regenerated with 3M MgCl₂ for 60 s. A 1:1 (Langmuir) binding model was used to fit the data.

recombinant mouse PD-1 = target: T6, recombinant mouse PD-1 (mouse, UniProt Q02242 25-167, limits assumed); assay: ELISA, detection with anti-human IgG4 heavy chain or anti-human lambda light chain
T6 sequence (looked up): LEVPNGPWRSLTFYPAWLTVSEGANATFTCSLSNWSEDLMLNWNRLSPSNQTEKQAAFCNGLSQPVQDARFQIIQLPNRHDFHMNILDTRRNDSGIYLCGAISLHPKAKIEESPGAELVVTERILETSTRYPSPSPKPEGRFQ

[7] = target: T1, recombinant human PD-1 protein; assay: Biacore, antibody captured on protein A, monomeric recombinant human PD-1 as analyte
[8] = target: human CTLA-4 (recombinant) (human, UniProt P16410 36-161, limits assumed); assay: ELISA on coated recombinant protein, one antibody concentration (not given)
human CTLA-4 (recombinant), sequence (P16410 36-161 limits assumed): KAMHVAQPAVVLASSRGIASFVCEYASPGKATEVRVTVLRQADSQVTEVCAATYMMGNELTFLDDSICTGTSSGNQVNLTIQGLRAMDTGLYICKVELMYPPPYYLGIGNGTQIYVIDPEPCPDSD

human CD28 (recombinant) = human CD28 (recombinant) (human, UniProt P10747 19-152); assay: as above
human ICOS (recombinant) = target: T7, human ICOS (recombinant) (human, UniProt Q9Y6W8 21-140, limits assumed); assay: as above
T7 sequence (looked up): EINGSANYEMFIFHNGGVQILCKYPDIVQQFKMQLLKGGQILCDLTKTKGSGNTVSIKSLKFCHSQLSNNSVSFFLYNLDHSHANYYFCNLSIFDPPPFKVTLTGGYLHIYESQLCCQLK

[9] = target: T4, human PD-1 expressed on cells; assay: flow cytometry on anti-CD3-activated PBMC
Procedure: (§3) This example illustrates in vitro data for cellular binding EC50 measurements. […] The experimental procedure is as follows. Peripheral blood mononuclear cells (PBMC) were added to the wells of a 24 well plate and stimulated anti-CD3 (3 ng/ml). After three days of culture the cells were harvested and added to the wells of wells of a 96-well, v-bottom plate in 100 μl FACS Buffer (PBS+2% FBS). A twelve point, 3× dilution curve of each anti-PD-1 antibody was made in FACS Buffer starting at 10 μg/ml (0.6×10⁻⁷M). Cells were spun down, washed twice with FACS Buffer, and then resuspended in 25 μl of antibody solution in triplicate. After 0.5 hr incubation, cells were washed 1× with FACS Buffer and resuspended in 50 μl PE-conjugated, goat anti-human IgG (γ-chain specific) secondary antibody (Southern Biotech Cat #2040-09). Cells were further incubated for 0.5 hr and then washed 1× with FACS Buffer. Cells were resuspended in 25 μl FACS Buffer and the median fluorescence intensity in the FL2-H channel was determined using the Intellicyt HTFC flow cytometer. Data was analyzed and plotted in Graph Pad Prism using non-linear regression fit.

[10] = target: T4, human PD-1 expressed on cells; assay: flow cytometry on anti-CD3-activated PBMC; remark: listed apart in the source
Procedure: as §3

[11] = target: T5, recombinant human PD1 (His-tagged) …; assay: BIAcore, mAb captured on anti-human Fc, His-tagged human PD1 as analyte

T1 sequence (Q15116 25-167 limits assumed): as the sequence (Q15116 25-167 limits assumed) above
T2 sequence (Q9NZQ7 19-290 limits assumed): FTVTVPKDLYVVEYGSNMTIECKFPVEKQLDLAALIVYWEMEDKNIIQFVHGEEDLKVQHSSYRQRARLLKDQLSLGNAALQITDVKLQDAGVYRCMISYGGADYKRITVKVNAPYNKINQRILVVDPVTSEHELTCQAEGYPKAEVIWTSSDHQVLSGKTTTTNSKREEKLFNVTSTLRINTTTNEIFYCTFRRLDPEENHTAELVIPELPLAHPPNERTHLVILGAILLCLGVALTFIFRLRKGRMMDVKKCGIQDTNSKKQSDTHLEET

B1: anti-PD-1 antibody RG1H10 (IgG, isotype not stated in the assay) (antibody, V domains shown)
VH: QVQLVQSGSELKKPGASVKISCKASGYIFSDNGVNWVRQAPGQGLEWMGWINTKIGNPTYAQGFTGRFVFSLDTSISTTYLQISSLQAGDTAVYYCAREHDYYYGMDVWGQGTTVTVSS
VL: QSALTQPPSASGSPGQSVTISCTGTSSDVGGYNYVSWYQHHPGKAPKLMIYEVSKRPSGVPDRFSGSKSAITASLTISGLLTEDEADYYCSAWDDSLNADVFGGGTKVTVL
notes: also called PD1 RG1H10
[1]
  EC50: 391 pM
[2]
  binding result: no binding (tested: 50 µg/ml (3.33×10^-7M) top concentration)
[3]
  EC50: 840 pM
[4]
  EC50: 35.8 pM
[5]
  EC50: 25800 pM
  fold maximal binding against competitor 1: ~2 fold lower
[6]
  Ka: 1.25e+09 M⁻¹
  Kd: 802 pM
  koff: 0.00104 s⁻¹
  kon: 1.3e+06 M⁻¹ s⁻¹
Recombinant mouse PD-1
  binding result: no binding
[7]
  Kd: 3200 pM
  fold affinity against competitor 3: ~10 fold
[8]
  binding result: no binding
Human CD28 (recombinant)
  binding result: no binding
Human ICOS (recombinant)
  binding result: no binding

B2: RG1H10 (IgG1) (antibody, V domains shown)
VH: QVQLVQSGSELKKPGASVKISCKASGYIFSDNGVNWVRQAPGQGLEWMGWINTKIGNPTYAQGFTGRFVFSLDTSISTTYLQISSLQAGDTAVYYCAREHDYYYGMDVWGQGTTVTVSS
VL: QSALTQPPSASGSPGQSVTISCTGTSSDVGGYNYVSWYQHHPGKAPKLMIYEVSKRPSGVPDRFSGSKSAITASLTISGLLTEDEADYYCSAWDDSLNADVFGGGTKVTVL
notes: IgG1; also called RG1H10 as immunoglobulin gamma 1
[9]
  EC50: 670 pM
[10]
  EC50: 670 pM
[11]
  Kd: 1300 pM
  koff: 0.001 s⁻¹
  kon: 750000 M⁻¹ s⁻¹

B3: RG1H10 (IgG4 S228P) (antibody, V domains shown)
VH: QVQLVQSGSELKKPGASVKISCKASGYIFSDNGVNWVRQAPGQGLEWMGWINTKIGNPTYAQGFTGRFVFSLDTSISTTYLQISSLQAGDTAVYYCAREHDYYYGMDVWGQGTTVTVSS
VL: QSALTQPPSASGSPGQSVTISCTGTSSDVGGYNYVSWYQHHPGKAPKLMIYEVSKRPSGVPDRFSGSKSAITASLTISGLLTEDEADYYCSAWDDSLNADVFGGGTKVTVL
notes: also called RG1H10 as immunoglobulin gamma 4 with hinge mutation S228P
[9]
  EC50: 47 pM
[10]
  EC50: 47 pM
[11]
  Kd: 1600 pM
  koff: 0.0014 s⁻¹
  kon: 880000 M⁻¹ s⁻¹

B4: H7 (IgG) (antibody, V domains shown)
VH: QVQLVQSGSELKKPGASVKISCKASGYIFSDNGVNWVRQAPGQGLEWMGWINTKIGNPTYAQGFTGRFVFSLDTSVSTTYLQISSLQAGDTAVYYCAREHDYYYGMDVWGQGTTVTVSS
VL: QSVLTQPASVSGSPGQSVTISCTGSSSDVGAYNFVSWYRQYPGKAPKLLIYEVNKRPSDVPDRFSGSKFGNTASLTVSGLQADDEADYYCSSYAGSTDVFGTGTKVTVL
notes: Detected with anti-human IgG (gamma chain specific); also called PD1 H7
[2]
  binding result: no binding (tested: 50 µg/ml (3.33×10^-7M) top concentration)
[4]
  EC50: 222 pM

B5: GA2 (IgG) (antibody, V domains shown)
VH: QVQLVQSGSELKKPGASVKISCKASGYIFSDNGVNWVRQAPGQGLEWMGWINTKIGNPTYAQGFTGRFVFSLDTSVSTTYLQISSLQAGDTAVYYCAREHDYYYGMDVWGQGTTVTVSS
VL: QPVLTQPPSASGTPGQRVTISCSGSSSNIGTNTVNWYQQVPGTAPKLLIHGNDQRPSGVPDRFSGSKSDTSASLAITGLQSDDDADYYCSAWDDSLNADVFGGGTKLTVL
notes: Detected with anti-human IgG (gamma chain specific); also called PD1 GA2
[2]
  binding result: no binding (tested: 50 µg/ml (3.33×10^-7M) top concentration)
[4]
  EC50: 202 pM

B6: RG1B3 (IgG) (antibody, V domains shown)
VH: QVQLVQSGAEVKKPGASVKVSCKASGYTFTSYGISWVRQAPGQGLEWMGWISAYNGNTNYAQKLQGRVTMTTDTSTSTAYMELRSLRSDDTAVYYCARGLYGDEDYWGQGTLVTVSS
VL: LPVLTQPPSVSEVPGQRVTISCSGGISNIGSNAVNWYQHFPGKAPKLLIYYNDLLPSGVSDRFSASKSGTSASLAISGLRSEDEADYYCAAWDDNLSAYVFATGTKVTVL
notes: Detected with anti-human IgG (gamma chain specific); also called PD1 RG1B3
[2]
  binding result: no binding (tested: 50 µg/ml (3.33×10^-7M) top concentration)
[4]
  EC50: 183 pM

B7: RG2H10 (IgG) (antibody, V domains shown)
VH: QVQLQQSGPGLVRPSQTLSLSCDISGDSVSSNSATWNWIRQSPSRGLEWLGRTFYRSKWYHDYALSVKSRITINPDTSKNQFSLQLNSVSPGDTAVYFCVREDIDGRLDYWGQGTLVTVSS
VL: QPVLTQPASVSGSPGQSITISCTGTSSDVGGYNYVSWYQQHPGKAPKLMIYDVSNRPSGVSNRFSGSKSGNTASLAITGLQSDDDADYYCSAWDDSLNADVFGGGTKLTVL
notes: Detected with anti-human IgG (gamma chain specific); also called PD1 RG2H10
[2]
  binding result: no binding (tested: 50 µg/ml (3.33×10^-7M) top concentration)
[4]
  EC50: 2800 pM

B8: SH-A4 (IgG) (antibody, V domains shown)
VH: QVQLVQSGSELKKPGASVKISCKASGYIFSDNGVNWVRQAPGQGLEWMGWINTKIGNPTYAQGFTGRFVFSLDTSVSTTYLQISSLQAGDTAVYYCAREHDYYYGMDVWGQGTTVTVSS
VL: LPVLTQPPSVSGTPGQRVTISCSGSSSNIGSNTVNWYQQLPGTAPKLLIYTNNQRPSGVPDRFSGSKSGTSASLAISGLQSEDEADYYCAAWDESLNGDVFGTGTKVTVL
notes: Detected with anti-human IgG (gamma chain specific); also called PD1 SHA4
[2]
  binding result: no binding (tested: 50 µg/ml (3.33×10^-7M) top concentration)
[4]
  EC50: 115 pM

B9: RG4A6 (IgG) (antibody, V domains shown)
VH: EVQLVESGGGLVQPGGSLRLSCAASGFTFSSYWMHWVRQAPGKGLEWVSSISSSSSYIYYADSVKGRFTISRDNAKNSLYLQMNSLRAEDTAVYYCARDTLEYYGSGILENAMGYYGMDVWGQGTTVTVSS
VL: not shown
notes: Detected with anti-human IgG (gamma chain specific); also called PD1 RG4A6
[2]
  binding result: no binding (tested: 50 µg/ml (3.33×10^-7M) top concentration)
[4]
  EC50: 779 pM
